Measurements reported in paper PMC9578707, “Identification of orphan ligand-receptor relationships using a cell-based CRISPRa enrichment screening platform” (eLife, 2022).

T1: growth arrest specific 1 protein (human, UniProt P54826 40-317, biotin (biotinylated in vitro with BirA) where used on beads or as tetramer)
T1 construct: growth arrest specific 1, human; also called GAS1; source: Expi293F, purified (Ni-NTA, SEC); not shown: AviTag, C-terminal, kept
T1 sequence (looked up): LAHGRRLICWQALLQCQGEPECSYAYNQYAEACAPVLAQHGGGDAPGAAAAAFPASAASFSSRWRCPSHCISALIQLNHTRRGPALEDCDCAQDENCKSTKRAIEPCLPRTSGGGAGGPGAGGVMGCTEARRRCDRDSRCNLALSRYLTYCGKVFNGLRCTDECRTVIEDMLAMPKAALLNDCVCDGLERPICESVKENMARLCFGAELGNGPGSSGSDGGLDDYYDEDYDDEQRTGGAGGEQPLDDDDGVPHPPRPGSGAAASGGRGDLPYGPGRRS


Experiments:
[1] = target: the molecule itself; experiment: SPR; Biacore T100; biotinylated receptor ECD or hit protein captured on a streptavidin chip (~100-200 RU), non-biotinylated secreted ligand as analyte in twofold dilutions; HBS-P+ buffer; 1:1 Langmuir model or equilibrium fit
[2] = target: T1, growth arrest specific 1 protein; experiment: as above; conditions: both partners purified

Row | Kd [2] [nM] | Binder | binding result [1]
1 |  | SMOC1 (ligand, human, UniProt Q9H4F8 27-434, looked up, biotin (biotinylated in vitro with BirA) where used on beads or captured on the chip, SMOC1, human; also called SPARC-related ligand; source: Expi293F, purified (Ni-NTA, SEC); not shown: AviTag, C-terminal, kept) HRTTGPRFLISDRDPQCNLHCSRTQPKPICASDGRSYESMCEYQRAKCRDPTLGVVHRGRCKDAGQSKCRLERAQALEQAKKPQEAVFVPECGEDGSFTQVQCHTYTGYCWCVTPDGKPISGSSVQNKTPVCSGSVTDKPLSQGNSGRKDDGSKPTPTMETQPVFDGDEITAPTLWIKHLVIKDSKLNNTNIRNSEKVYSCDQERQSALEEAQQNPREGIVIPECAPGGLYKPVQCHQSTGYCWCVLVDTGRPLPGTSTRYVMPSCESDARAKTTEADDPFKDRELPGCPEGKKMEFITSLLDALTTDMVQAINSAAPTGGGRFSEPDPSHTLEERVVHWYFSQLDSNSSNDINKREMKPFKRYVKKKAKPKKCARRFTDYCDLNKDKVISLPELKGCLGVSKEGRLV | binds
2 | ~1000 | PTPRA-ECD (domain or fragment, human, UniProt P18433 20-151, looked up, biotin (captured on the streptavidin chip), PTPRA, human, extracellular domain; construct of the ECD is not described; source: Expi293F, purified (Ni-NTA, SEC)) NNATTVAPSVGITRLINSSTAEPVKEEAKTSNPTSSLTSLSVAPTFSPNITLGPTYLTTVNSSDSDNGTTRTASTNSIGITISPNGTWLPDNQFTDARTEPWEGNSSTAATTPETFPPSGNSDSKDRRDETP | 
